The values below come from paper PMC5600700.

In one test the target is Cx45 CT (UniProt P36383). Conditions: cited from earlier work.
For test [1], the target named is Cx45CT WT (Lyn-HA-Cx45CT-mVenusN and Lyn-Myc-Cx45CT-mVenusC) (not stated (human or mouse cDNA cloned)). As to the kind of experiment: split reporter.
In test [2] the target is Cx45 6E (stably expressed in MDCK cells) (not stated (human or mouse cDNA cloned)) (UniProt P28229). As to the kind of experiment: co-IP.
Sequence of UniProt P28229 (P28229 whole entry L335E/L338E/L349E/I353E/Y356E): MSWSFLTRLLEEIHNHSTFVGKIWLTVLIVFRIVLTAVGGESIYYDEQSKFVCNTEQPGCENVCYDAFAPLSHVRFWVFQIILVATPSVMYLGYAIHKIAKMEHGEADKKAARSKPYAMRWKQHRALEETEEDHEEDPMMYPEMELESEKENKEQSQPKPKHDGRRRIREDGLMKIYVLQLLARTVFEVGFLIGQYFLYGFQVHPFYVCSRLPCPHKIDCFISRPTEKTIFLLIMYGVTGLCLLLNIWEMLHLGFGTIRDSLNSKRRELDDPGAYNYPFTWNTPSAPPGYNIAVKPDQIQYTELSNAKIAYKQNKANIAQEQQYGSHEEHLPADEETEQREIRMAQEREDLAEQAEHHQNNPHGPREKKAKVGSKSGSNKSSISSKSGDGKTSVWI

Sequence of Cx45 CT (P36383 265-396): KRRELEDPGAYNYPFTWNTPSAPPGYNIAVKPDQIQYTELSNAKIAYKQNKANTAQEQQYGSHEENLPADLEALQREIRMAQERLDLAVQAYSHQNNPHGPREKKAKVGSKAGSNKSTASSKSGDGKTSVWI

For Cx45 CT (from UniProt P36383), the Kd in the test with Cx45 CT was 0.1 µM.
On to “Cx45CT WT (Lyn-HA-Cx45CT-mVenusN and Lyn-Myc-Cx45CT-mVenusC) (domain or fragment)”, for which, in test [1], the fold mVenus signal at the plasma membrane (normalized to Myc) over Cx45CT 6E stood at 2.5 fold.
In test [2], “developmentally regulated brain protein (Drebrin) (natural protein)” yielded a fold increase of the co-immunoprecipitated amount relative to Cx45 WT of 2 fold.
The substance “neural precursor cell expressed developmentally down-regulated protein 4 (Nedd4) (enzyme)” had a fold decrease of the co-immunoprecipitated amount relative to Cx45 WT in test [2] of 2 fold.
Still for that read-out and setting: to β-tubulin (natural protein) belongs 3 fold.
